Experimental data as given in PMC13570301 (2026).
Where a chain is given by its changes, count along the chain named. Names and notes keep the numbering of the source. One block for each binder: values may come before it.

Molecular target: UBE2D2 (1–147), from the plasmid pHis//2 Hs UBE2D2 (1–147) (human, UniProt P62837 1-147)
Experiment: BLI

Chain of UBE2D2 (1–147), from the plasmid pHis//2 Hs UBE2D2 (1–147) (P62837 whole entry): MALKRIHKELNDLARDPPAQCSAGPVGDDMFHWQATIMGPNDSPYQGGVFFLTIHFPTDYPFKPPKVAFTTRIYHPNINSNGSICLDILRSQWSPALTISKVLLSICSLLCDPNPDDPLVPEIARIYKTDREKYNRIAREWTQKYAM

Kd: 14.3 µM
B1: CHIP wild type, recombinant, C-terminal His tag (pET30-CHIP-His) (enzyme)
chain: MKGKEEKEGGARLGAGGGSPEKSPSAQELKEQGNRLFVGRKYPEAAACYGRAITRNPLVAVYYTNRALCYLKMQQHEQALADCRRALELDGQSVKAHFFLGQCQLEMESYDEAIANLQRAYSLAKEQRLNFGDDIPSALRIAKKKRWNSIEERRIHQESELHSYLSRLIAAERERELEECQRNHEGDEDDSHVRAQQACIEAKHDKYMADMDELFSQVDEKRKKRDIPDYLCGKISFELMREPCITPSGITYDRKDIEEHLQRVGHFDPVTRSPLTQEQLIPNLAMKEVIDAFISENGWVEDY

Kd: 24.2 µM
B2: CHIP G33S, recombinant, C-terminal His tag (enzyme)
chain: B1 chain with G33S

Kd: 44.9 µM
B3: CHIP P228S, recombinant, C-terminal His tag (enzyme)
chain: B1 chain with P228S
